Consider one molecule from paper doi:10.1101/2024.12.02.626349 (bioRxiv, 2024).

This test concerns the target ^15N-labeled wild-type untagged ubiquitin (UniProt P0CG48 1-76, ^15N-labeled). Kind of test: NMR titration.

B1: 6xHis-tagged UBR4-UBL (residues 4340-4463) (domain or fragment)
chain: YPEENEVTEFFVTLEKDPQQEDFLQGRMPGNPYSSNEPGIGPLMRDIKNKICQDCDLVALLEDDSGMELLVNNKIISLDLPVAEVYKKVWCTTNEGEPMRIVYRMRGLLGDATEEFIESLDSTT
One may read the Kd as a measure of binding affinity in units of concentration. B1 had a Kd of 124 µM.
